What all share (assay): cell-based or functional assay
In assay [1] the target is T1, human NMUR1 (human, UniProt Q9HB89 1-426).
T1 sequence (looked up): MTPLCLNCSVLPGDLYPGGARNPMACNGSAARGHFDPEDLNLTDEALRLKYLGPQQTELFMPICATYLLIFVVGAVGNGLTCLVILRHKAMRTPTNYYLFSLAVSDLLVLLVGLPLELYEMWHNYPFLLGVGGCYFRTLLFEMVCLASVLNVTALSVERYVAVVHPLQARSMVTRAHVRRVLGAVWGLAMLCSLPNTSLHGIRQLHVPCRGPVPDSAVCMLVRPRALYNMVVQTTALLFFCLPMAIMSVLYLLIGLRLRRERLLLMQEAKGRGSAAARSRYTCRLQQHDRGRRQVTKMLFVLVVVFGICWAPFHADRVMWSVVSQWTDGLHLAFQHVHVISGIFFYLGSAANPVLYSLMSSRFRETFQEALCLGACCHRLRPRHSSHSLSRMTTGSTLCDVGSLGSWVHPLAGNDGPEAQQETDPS

Assay [2] deals with human NMUR2 (human, UniProt Q9GZQ4 1-415).
Assay [3] concerns the target T2, mouse NMUR1-ATG (mouse, UniProt O55040 1-428).
T2 sequence (looked up): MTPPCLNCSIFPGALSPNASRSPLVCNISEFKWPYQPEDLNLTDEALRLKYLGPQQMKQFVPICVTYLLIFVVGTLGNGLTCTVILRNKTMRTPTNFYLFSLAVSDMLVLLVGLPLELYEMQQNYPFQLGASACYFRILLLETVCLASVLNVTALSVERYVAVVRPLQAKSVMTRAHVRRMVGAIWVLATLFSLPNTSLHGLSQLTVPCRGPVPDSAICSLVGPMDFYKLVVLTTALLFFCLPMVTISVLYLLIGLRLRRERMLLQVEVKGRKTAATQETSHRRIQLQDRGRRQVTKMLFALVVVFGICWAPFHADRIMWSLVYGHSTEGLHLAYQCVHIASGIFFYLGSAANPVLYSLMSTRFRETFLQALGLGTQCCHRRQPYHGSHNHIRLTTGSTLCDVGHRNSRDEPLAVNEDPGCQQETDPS

Assay [4] addresses T3, mouse NMUR1-CTG (mouse, UniProt O55040 1-428).
T3 sequence (looked up): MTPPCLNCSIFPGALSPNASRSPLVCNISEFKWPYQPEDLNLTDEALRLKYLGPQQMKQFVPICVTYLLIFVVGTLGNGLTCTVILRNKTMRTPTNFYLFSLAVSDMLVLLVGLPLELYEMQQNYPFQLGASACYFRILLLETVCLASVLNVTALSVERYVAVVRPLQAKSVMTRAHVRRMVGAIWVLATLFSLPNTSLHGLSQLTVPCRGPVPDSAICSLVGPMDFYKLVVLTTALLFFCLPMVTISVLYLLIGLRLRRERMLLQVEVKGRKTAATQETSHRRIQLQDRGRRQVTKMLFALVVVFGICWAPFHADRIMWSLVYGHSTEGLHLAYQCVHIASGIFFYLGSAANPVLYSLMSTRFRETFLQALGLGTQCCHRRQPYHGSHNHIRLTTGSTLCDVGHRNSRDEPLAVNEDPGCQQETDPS

In assay [5] the target is mouse NMUR2 (mouse, UniProt Q8BZ39 1-395).
Assay [6] addresses T4, rat NMUR1-ATG (rat, UniProt Q9JJI5 1-425).
T4 sequence (looked up): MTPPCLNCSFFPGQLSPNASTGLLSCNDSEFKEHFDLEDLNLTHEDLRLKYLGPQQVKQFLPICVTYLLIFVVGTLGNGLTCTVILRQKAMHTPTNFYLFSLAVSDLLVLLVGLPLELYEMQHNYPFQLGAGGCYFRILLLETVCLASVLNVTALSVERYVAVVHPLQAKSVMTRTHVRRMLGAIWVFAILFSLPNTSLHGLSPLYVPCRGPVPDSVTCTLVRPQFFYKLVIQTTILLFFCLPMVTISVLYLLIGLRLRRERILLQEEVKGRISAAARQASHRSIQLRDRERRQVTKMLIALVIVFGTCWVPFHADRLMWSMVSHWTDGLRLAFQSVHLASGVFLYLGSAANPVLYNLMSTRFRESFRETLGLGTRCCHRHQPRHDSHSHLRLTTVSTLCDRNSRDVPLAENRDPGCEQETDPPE

For assay [7], the target named is T5, rat NMUR1-TTG (rat, UniProt Q9JJI5 1-425).
T5 sequence (looked up): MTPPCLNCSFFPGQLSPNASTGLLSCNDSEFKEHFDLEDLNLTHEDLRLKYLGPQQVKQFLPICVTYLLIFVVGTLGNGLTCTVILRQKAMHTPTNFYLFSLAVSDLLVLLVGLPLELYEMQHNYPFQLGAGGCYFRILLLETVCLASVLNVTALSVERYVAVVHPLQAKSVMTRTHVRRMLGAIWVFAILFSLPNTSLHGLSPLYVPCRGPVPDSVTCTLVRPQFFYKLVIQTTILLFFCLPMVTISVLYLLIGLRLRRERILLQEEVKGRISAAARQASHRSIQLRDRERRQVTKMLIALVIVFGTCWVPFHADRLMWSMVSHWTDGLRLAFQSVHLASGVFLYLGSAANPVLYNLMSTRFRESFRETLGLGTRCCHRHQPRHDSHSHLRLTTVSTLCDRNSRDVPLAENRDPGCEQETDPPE

Assay [8] has as its target rat NMUR2 (rat, UniProt Q9ESQ4 1-395).

*: point of attachment. (PEG)2 40 kDa = branched PEG of 40 kDa linked via the Cys side-chain thiol (code C2 = Cys(PEG)2 40 kDa); Succinimide(1-Et,3-yl) = CCN1C(=O)CC(*)C1=O; Palmitoyl = CCCCCCCCCCCCCCCC(=O)*

rat NMUR2, sequence (Q9ESQ4 whole entry): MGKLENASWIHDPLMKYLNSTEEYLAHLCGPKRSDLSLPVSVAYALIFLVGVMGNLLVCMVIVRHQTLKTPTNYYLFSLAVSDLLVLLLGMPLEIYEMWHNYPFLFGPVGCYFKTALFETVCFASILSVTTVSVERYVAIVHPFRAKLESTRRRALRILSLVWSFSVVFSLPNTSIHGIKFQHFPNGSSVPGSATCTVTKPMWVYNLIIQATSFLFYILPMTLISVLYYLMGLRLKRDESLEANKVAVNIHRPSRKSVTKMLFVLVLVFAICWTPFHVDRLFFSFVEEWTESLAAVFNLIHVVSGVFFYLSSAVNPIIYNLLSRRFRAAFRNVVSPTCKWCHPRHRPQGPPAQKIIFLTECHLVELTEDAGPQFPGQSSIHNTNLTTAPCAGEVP
mouse NMUR2, sequence (Q8BZ39 whole entry): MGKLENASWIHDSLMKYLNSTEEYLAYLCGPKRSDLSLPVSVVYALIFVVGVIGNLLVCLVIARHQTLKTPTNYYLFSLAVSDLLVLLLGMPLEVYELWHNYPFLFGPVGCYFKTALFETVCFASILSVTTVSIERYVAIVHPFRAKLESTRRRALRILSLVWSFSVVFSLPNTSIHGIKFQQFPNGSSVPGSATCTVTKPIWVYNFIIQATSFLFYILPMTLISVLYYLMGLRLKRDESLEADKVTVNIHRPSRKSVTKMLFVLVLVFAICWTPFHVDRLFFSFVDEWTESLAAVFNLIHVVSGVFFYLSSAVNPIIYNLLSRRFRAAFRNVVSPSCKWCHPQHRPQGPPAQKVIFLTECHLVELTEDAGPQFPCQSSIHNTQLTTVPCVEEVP
human NMUR2, sequence (Q9GZQ4 whole entry): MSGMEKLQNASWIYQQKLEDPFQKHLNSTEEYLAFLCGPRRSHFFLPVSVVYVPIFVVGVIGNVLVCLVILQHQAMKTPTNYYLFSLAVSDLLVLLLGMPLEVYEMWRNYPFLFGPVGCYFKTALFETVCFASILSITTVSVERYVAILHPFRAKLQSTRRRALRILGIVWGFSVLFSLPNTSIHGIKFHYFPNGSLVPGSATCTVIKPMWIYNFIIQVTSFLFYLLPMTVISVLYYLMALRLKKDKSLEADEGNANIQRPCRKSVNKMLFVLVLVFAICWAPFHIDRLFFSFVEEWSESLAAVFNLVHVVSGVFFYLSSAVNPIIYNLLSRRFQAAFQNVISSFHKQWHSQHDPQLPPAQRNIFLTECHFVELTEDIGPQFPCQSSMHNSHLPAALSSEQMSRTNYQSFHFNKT

As for Ac-C(PEG 20 kDa)C(PEG 20 kDa)FRVDEEFQSPFASQSRGYFLFRPRN-NH2 [NMU23], the “% Activity (FLIPR)” value in assay [1] amounted to 66.9%; in assay [2], 71.7%; in assay [3] it was 100%; in assay [4] it was 50.9%; in assay [5], 100%; in assay [6], 76.4%. The “% Activity (FLIPR)” value was 39.8% in assay [7] and 90.2% in assay [8]. Further, the “EC50 (FLIPR)” value in assay [1] stood at 0.3 µM; in assay [2] it was 1 µM; in assay [3], 0.014 µM; in assay [4] it was 0.77 µM; in assay [5], 0.0213 µM; in assay [6] it was 0.127 µM. The “EC50 (FLIPR)” value in assay [7] was 1 µM; in assay [8], 0.0474 µM.

B1: NMU19 (peptide)
peptide: Ac-C(Succinimide(1-Et,3-yl))FQSPFASQSRGYFLFRPRN-NH2
SMILES: CCN1C(=O)CC(SC[C@H](NC(C)=O)C(=O)N[C@@H](Cc2ccccc2)C(=O)N[C@@H](CCC(N)=O)C(=O)N[C@@H](CO)C(=O)N2CCC[C@H]2C(=O)N[C@@H](Cc2ccccc2)C(=O)N[C@@H](C)C(=O)N[C@@H](CO)C(=O)N[C@@H](CCC(N)=O)C(=O)N[C@@H](CO)C(=O)N[C@@H](CCCNC(=N)N)C(=O)NCC(=O)N[C@@H](Cc2ccc(O)cc2)C(=O)N[C@@H](Cc2ccccc2)C(=O)N[C@@H](CC(C)C)C(=O)N[C@@H](Cc2ccccc2)C(=O)N[C@@H](CCCNC(=N)N)C(=O)N2CCC[C@H]2C(=O)N[C@@H](CCCNC(=N)N)C(=O)N[C@@H](CC(N)=O)C(N)=O)C1=O
Take B1: the “% Activity (FLIPR)” value in assay [1] was determined as 95.9%; in assay [2] it was 105%; in assay [3], 100%; in assay [4] it was 111%; in assay [5], 100%; in assay [6], 100%. Moreover, the “% Activity (FLIPR)” value in assay [7] and in assay [8] was 100% throughout. Further, the “EC50 (FLIPR)” value in assay [1] turned out to be 0.0389 µM; in assay [2], 0.0115 µM; in assay [3] it was 0.0079 µM; in assay [4], 0.0225 µM; in assay [5], 0.0056 µM; in assay [6] it was 0.0068 µM. For the same molecule, the “EC50 (FLIPR)” value amounted to 0.0128 µM in assay [7] and 0.0087 µM in assay [8].
As for Ac-C(PEG 20 kDa)FRVDEEFQSPFASQSRGYFLFRPRN-NH2 [NMU21], the “% Activity (FLIPR)” value in assay [1] was 93.2%; in assay [2], 97.9%; in assay [3] it was 100%; in assay [4], 90.8%; in assay [5] it was 100%; in assay [6], 99.9%. Also, the “% Activity (FLIPR)” value stood at 77.5% in assay [7] and 99.2% in assay [8]. For the same molecule, the “EC50 (FLIPR)” value was determined as 0.0145 µM in assay [1]; 0.0242 µM in assay [2]; 0.0091 µM in assay [3]; 0.0563 µM in assay [4]; 0.0016 µM in assay [5]; 0.0195 µM in assay [6]. Also, the “EC50 (FLIPR)” value in assay [7] is 0.22 µM; in assay [8], 0.007 µM.
Turning to Ac-C((PEG)2 40 kDa)FQSPFASQSRGYFLFRPRN-NH2 [NMU20], the “% Activity (FLIPR)” value in assay [1] was found to be 100%; in assay [2], 100%; in assay [3], 100%; in assay [4] it was 65.4%; in assay [5], 100%; in assay [6] it was 100%. Also, the “% Activity (FLIPR)” value in assay [7] was found to be 93.8%; in assay [8], 100%. Also, the “EC50 (FLIPR)” value in assay [1] turned out to be 0.0164 µM; in assay [2] it was 0.013 µM; in assay [3] it was 0.0127 µM; in assay [4], 0.48 µM; in assay [5] it was 0.0148 µM; in assay [6], 0.0072 µM. Further, the “EC50 (FLIPR)” value was 0.0244 µM in assay [7] and 0.0169 µM in assay [8].
With Palmitoyl-C(Succinimide(1-Et,3-yl))FRVDEEFQSPFASQSRGYFLFRPRN-NH2 [NMU24], the “% Activity (FLIPR)” value amounted to 34.4% in assay [1]; 63.9% in assay [2]; 81.4% in assay [3]; 56.1% in assay [4]; 82.4% in assay [5]; 80.8% in assay [6]. In addition, the “% Activity (FLIPR)” value came to 67.7% in assay [7] and 52.2% in assay [8]. Further, the “EC50 (FLIPR)” value in assay [1] was 1 µM; in assay [2], 1 µM; in assay [3], 1 µM; in assay [4] it was 0.591 µM; in assay [5], 1 µM; in assay [6], 0.236 µM. The “EC50 (FLIPR)” value in assay [7] turned out to be 0.222 µM; in assay [8], 0.986 µM.
On to Ac-C(Succinimide(1-Et,3-yl))C(Succinimide(1-Et,3-yl))FRVDEEFQSPFASQSRGYFLFRPRN-NH2 [NMU22], for which the “% Activity (FLIPR)” value in assay [1] was determined as 95.6%; in assay [2] it was 105%; in assay [3], 100%; in assay [4], 100%; in assay [5] it was 100%; in assay [6] it was 100%. In addition, the “% Activity (FLIPR)” value in assay [7] came out at 96.4%; in assay [8], 98.8%. For the same molecule, the “EC50 (FLIPR)” value in assay [1] turned out to be 0.0102 µM; in assay [2], 0.0065 µM; in assay [3] it was 0.0062 µM; in assay [4], 0.0435 µM; in assay [5], 0.0069 µM; in assay [6] it was 0.014 µM. The “EC50 (FLIPR)” value in assay [7] amounted to 0.0391 µM; in assay [8], 0.0171 µM.

Source of the values: patent publication US20070244048A1 (published 2007).
